Assay results from patent publication US20240239886A1 (YEDA RESEARCH AND DEVELOPMENT, published 2024).
Where two headings read alike, the source gives them in different places.

T1: soluble TREM2 protein (human, UniProt Q9NZC2 19-157)
T1 construct: also called TREM2 in cell culture supernatant (Sup)
T1 sequence: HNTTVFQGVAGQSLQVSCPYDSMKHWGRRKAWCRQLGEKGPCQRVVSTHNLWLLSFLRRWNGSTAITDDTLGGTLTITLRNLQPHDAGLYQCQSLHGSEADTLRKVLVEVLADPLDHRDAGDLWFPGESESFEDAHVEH

T2: human TREM2 (hTREM2) on cells (human, UniProt Q9NZC2 19-230)
T2 construct: also called hTREM2 expressing HEK293
T2 sequence: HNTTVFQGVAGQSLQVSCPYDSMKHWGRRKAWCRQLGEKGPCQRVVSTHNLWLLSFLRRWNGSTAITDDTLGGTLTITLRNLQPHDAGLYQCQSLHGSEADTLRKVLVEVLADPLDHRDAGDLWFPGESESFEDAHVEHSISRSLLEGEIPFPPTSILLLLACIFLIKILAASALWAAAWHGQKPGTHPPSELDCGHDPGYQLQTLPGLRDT

T3: recombinant protein consisting of the extracellular domain of human TREM2 fused to the His tag (human, UniProt Q9NZC2 19-174)
T3 construct: also called His tagged hTREM2; His-TREM2
T3 sequence: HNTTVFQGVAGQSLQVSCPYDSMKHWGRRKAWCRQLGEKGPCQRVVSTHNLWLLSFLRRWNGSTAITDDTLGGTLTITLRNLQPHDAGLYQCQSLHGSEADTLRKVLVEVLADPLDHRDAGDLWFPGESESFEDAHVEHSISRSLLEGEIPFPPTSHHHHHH

T4: recombinant protein consisting of the extracellular domain of human TREM2 fused to the His tag (UniProt Q9NZC2 19-174)
T4 chain: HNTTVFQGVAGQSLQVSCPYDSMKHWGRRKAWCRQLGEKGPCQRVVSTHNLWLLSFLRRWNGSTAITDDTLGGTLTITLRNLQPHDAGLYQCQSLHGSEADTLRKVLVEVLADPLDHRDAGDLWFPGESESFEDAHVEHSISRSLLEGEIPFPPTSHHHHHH


What was measured:
soluble TREM2 protein = target: T1, soluble TREM2 protein; assay: sup ELISA, hTREM2 vs WT 293HEK supernatant
Experimental: Supernatant was collected, centrifuged for 5 min at 900 g and filtered (0.45 μm). Ninety six-well ELISA microplate was coated with 0.2 μg/well of anti human TREM2 Antibody (AF1828, R&D) diluted in PBS, and incubated at 4° C. overnight. The plate was rinsed three times with 0.05% tween20 in PBS, blocked with 1% BSA in PBS at room temperature (RT) for 1 hr, and rinsed again. The plates was incubated with the cell culture supernatant (100 μl/well) for 2 hrs at RT for and rinsed again. The plate was incubated with 0.1 μg biotinylayed anti hTREM2 antibodies for 2 hrs at RT. After incubation, the plate was rinsed and incubated with streptavidin-HRP (DY998, R&D) for 20 min at RT. The plate was rinsed and incubated with TMB Reagent (TM4500, Scytek) for 20 min at RT, followed by the addition of Stop Solution 2N Sulfuric Acid (DY994, R&D). OD was measured using an ELISA plate reader at dual wavelengths (450 nm and 570 nm)
(§1) A. Cells culture supernatant (Sup) was used for soluble TREM2 protein binding capability test of 18 hybridoma derived monoclonal antibodies by direct ELISA. B. Cells were captured in 96 wells plate and were used for cell based ELISA of 18 hybridoma derived monoclonal antibodies. OD values positive cells (hTREM2 expressing HEK293) and negative cells (WT HEK293) are showing in the table.

[1] = target: T2, human TREM2 (hTREM2) on cells; assay: cell-based ELISA, hTREM2 vs WT 293HEK cells
Experimental: Cells were washed three times with PBS and blocked (5% FBS, 1% BSA in PBS) for 2 hrs at RT. Cells were washed with 1% BSA in PBS and were incubated with 0.1 ug (or indicated amount) obiotinylayed anti hTREM2 antibodies for 4 hrs at RT. After incubation, cells were incubated with streptavidin-HRP (DY998, R&D) for 20 min at RT. The cells were washed and incubated with TMB Reagent (TM4500, Scytek) for 30 min at RT, followed by the addition of Stop Solution 2N Sulfuric Acid (DY994, R&D). OD was measured using an ELISA plate reader at dual wavelengths (450 nm and 570 nm). Biotinylation of Antibodies was done using EZ-Link™ Sulfo-NHS-LC-Biotinylation kit (Thermo Fisher Scientific) according to manufacturer's instructions.
as §1

[2] = target: T3, recombinant protein consisting of the …; assay: direct ELISA; highest dilution with S/B >= 2.1
Experimental: (§2) Ninety six-Well ELISA microplate was coated with 0.5 μg/mL, 100 μl/well His tagged hTREM2 diluted in PBS pH 7.4, and incubated at 4° C. overnight. The plate was rinsed three times with 0.05% tween20 in PBS, blocked with 1% BSA in PBS at room temperature (RT) for 1 hr, and rinsed again. The plates was incubated with the anti hTREM2 antibodies (100 μl/well) for 2 hrs at indicated concentration, at RT. Plate was rinsed and incubated with Peroxidase-AffiniPure Goat anti Mouse IgG, Fcg fragment specific (min X Hu, Bov, Hrs, Sr Prot; Jackson ImmunoResearch) for 20 min at RT. The plate was rinsed and incubated with TMB Reagent (TM4500, Scytek) for 20 min at RT, followed by the addition of Stop Solution 2N Sulfuric Acid (DY994, R&D). OD was measured using an ELISA plate reader at dual wavelengths (450 nm and 570 nm)
(§3) Purity is measured by SDS-PAGE. Quantity of endotoxin (EU/mg) is measured by LAL assay. Titer measured by direct ELISA, while the title value is the highest dilution with S/B (Signal/Blank) >= 2.1

[3] = target: T4, recombinant protein consisting of the …; assay: SPR
[4] = target: T2, human TREM2 (hTREM2) on cells; assay: flow cytometry on BMDM
Experimental: TREM2 KO and hTREM2 BMDM were washed with MACS buffer (PBS pH 7.2, 0.5% BSA and 2 mM EDTA) and stained with biotin conjugated anti hTREM2 antibodies (10 μg/mL) followed by Washing with MACS buffer and APC-streptavidin (Biolegend, 405207) incubation, then analyzed by flow cytometer (LSRII, BD).

[5] = target: T3, recombinant protein consisting of the …; assay: direct ELISA; highest dilution with S/B >= 2.1; remark: listed apart in the source
Experimental: as §2, §3

[6] = target: T3, recombinant protein consisting of the …; assay: direct ELISA, coated His-TREM2 0.5 ug/mL, Ab stock 1 mg/mL
Experimental: as §2

[7] = target: T3, recombinant protein consisting of the …; assay: direct ELISA
Experimental: as §2

sup ELISA positive/negative (293HEK) (soluble TREM2 protein) | Cell based ELISA positive/negative [1] | Titer [2] | Kd [3] | FACS positive/negative BMDM [4] | Titer [5] | OD at dilution 1000 [6] | OD at dilution 3000 [6] | OD at dilution 9000 [6] | OD at dilution 27000 [6] | OD at dilution 81000 [6] | OD at dilution 243000 [6] | OD at dilution 729000 [6] | OD at dilution 2187000 [6] | OD at dilution 6561000 [6] | OD at dilution 19683000 [6] | direct ELISA positive/negative [7] | Binder
24.9 ratio | 2.8 ratio | 2.19e+06 dilution | 0.0275 pM | 1.87 ratio | 2.19e+06 dilution | 2.02 OD | 2.12 OD | 2.16 OD | 1.76 OD | 1.2 OD | 0.608 OD | 0.281 OD | 0.145 OD | 0.092 OD | 0.085 OD | 33.4 ratio | 80E3C7 (antibody, V domains shown, Biotin conjugated in sup ELISA, cell-based ELISA and flow cytometry; also called anti-TREM2 antibody (E3C7); TREM2 Ab E3C7) VH: QVQLQQPGAEPLKPGASVKMSCEASGYTFTNFWITWMKLRPGQGLEWIGDIYPGTGNTNYNEKFKSRATLTVDTSSTTAYMQLSSLTSEDSAVYYCAREAYYTNPGFAYWGHGTLVTVSA VL: DVLMTQSPLSLPVNLGDQASISCKSSQNIVHSNGNTYLEWYLQRPGQSPKLLIYKVSNRFSGVPDRFSGSGSGTDFTLKISRVEAEDLGVYYCFQGSHVPYTFGGGTKLEIK
25.1 ratio | 2.69 ratio | 729000 dilution | 399 pM | 2.72 ratio | 729000 dilution | 1.4 OD | 1.35 OD | 1.18 OD | 0.967 OD | 0.586 OD | 0.276 OD | 0.147 OD | 0.106 OD | 0.087 OD | 0.069 OD | 33.9 ratio | 54H2C1 (antibody, V domains shown, Biotin conjugated in sup ELISA, cell-based ELISA and flow cytometry) VH: QVQLQQPGAEPLTPGASVKMSCEASGYTFTNFWITWVKLRPGQGLEWIGDIYPGSGNTNYNEKFKSRATLTVDTSSTTAYMQLSSLTSEDSAVYYCAREAYYTNPGFAYWGHGTLVTVSA VL: DVLMTQSPLSLPVNLGDQASISCKSSQNIVHSNGNTYLEWYLQRPGQSPKLLIYKVSNRFSGVPDRFSGSGSGTDFTLKISRVEAEDLGLYYCFQGSHVPYTFGGGTKLEIK
3.05 ratio | 2.46 ratio | 2.19e+06 dilution |  | 1.47 ratio | 2.19e+06 dilution | 2.75 OD | 2.76 OD | 2.88 OD | 2.58 OD | 1.92 OD | 0.985 OD | 0.405 OD | 0.169 OD | 0.099 OD | 0.066 OD | 35.1 ratio | 61B11C9 (antibody, V domains shown, Biotin conjugated in sup ELISA, cell-based ELISA and flow cytometry) VH: QLQESGPEQVKPGASVKMSCRTSGYTFTAYNMHWVKQRLGKSLEWIGYIRPTNGDTRYNRRFRDKATLTVDKSSSTTYMELRSLTSEDSAVYYCTRSTTVASFDYWGQGTTLTVSS VL: DIVMTQTTSSLTVSVGQKITLNCKSSQSLLYTNNQKNFLAWYQQKPGQSPKLLIYWASTRDSGVPDRFTGSGSGTDFTLTITSVMAEDLAVYFCQQYYDFPPTFGGGTKLEIK
11 ratio | 1.89 ratio | 2.19e+06 dilution |  | 1.78 ratio | 2.19e+06 dilution | 1.84 OD | 1.8 OD | 1.9 OD | 1.63 OD | 1.16 OD | 0.763 OD | 0.322 OD | 0.17 OD | 0.113 OD | 0.063 OD | 31.5 ratio | 60H4A3 (antibody, V domains shown, Biotin conjugated in sup ELISA, cell-based ELISA and flow cytometry) VH: EVQLQESGPELVKPGASVKMSCKASGYTFTDYNMHWVKQSHGKSLEWIGYIYPNNGGTGYNQKFKGKATLTVNKSSSTAYMELRSLTSEDSAVYYCARSGRGFAYWGQGTLVTVSA VL: DIVMTQSPASLSVTPGDRVSLSCRASQSISDYLHWYQQKSHESPRLLIKYASQSISGIPSRFSGSGSGSDFTLSINSVEPEDVGVYYCQNGHSFPYTFGGGTKLEIK
10 ratio | 1.38 ratio | 729000 dilution |  | 1.16 ratio | 729000 dilution | 1.83 OD | 1.89 OD | 1.69 OD | 1.31 OD | 0.849 OD | 0.432 OD | 0.222 OD | 0.133 OD | 0.102 OD | 0.067 OD | 27.4 ratio | 60H4G2 (antibody, V domains shown, Biotin conjugated in sup ELISA, cell-based ELISA and flow cytometry) VH: EVQLQESGPELVKPGASVKMSCKASGYTFTDYNMHWVKQSHGKSLEWIGYIYPNNGGTGYNQKFKGKATLTVNKSSSTAYMELRSLTSEDSAVYYCARSGRGFAYWGQGTLVTVSA VL: DIVMTQSTSSLTVTAGEKVTMSCKSSQSLLNSGNQKNYLTWYQQKPGQPPKLLIYWASSRESGVPDRFTGRGSGTDFTLTISSVQAEDLAVYYCQNDYSYPFTFGSGTKLEIK
27.9 ratio | 1.91 ratio | 243000 dilution | 32.1 pM | 2.58 ratio | 243000 dilution | 2.59 OD | 2.49 OD | 1.98 OD | 0.843 OD | 0.375 OD | 0.179 OD | 0.099 OD | 0.068 OD | 0.07 OD | 0.053 OD | 34.8 ratio | 83E10B12 (antibody, V domains shown, Biotin conjugated in sup ELISA, cell-based ELISA and flow cytometry) VH: QVQLQESGPELVKPGASVKISCKASGYIFSYSWMNWVKQRPGKGLEWIGRIYPGDGDADYNGKFKGKATLTADKSSNTAYMQLTSLTSEDSAVYFCARLHIYDGYYVSVYWGQGTLVTVSA VL: DIQMTQTTSCLSASLGDRVTISCRASQDINNYLSWYQQKPDGTVKLLIYYTSKLHSGVPSRFSGSGSGTDYSLTIGNLEQEDVATYFCQQGDTLPWTFGGGTRLEIK
